B1: anti-tau antibody 5G8 (antibody, V domains shown)
VH: EVQLQQSGAELVRSGASVRLSCTASGFNIKDYYMHWVRQRPEQGLEWIGWIDPENGDTVYAPKFQGKATMTSDTSSNTAYLHLSSLTSEDTAVYYCSPLDFWGQGTTLTVSS
VL: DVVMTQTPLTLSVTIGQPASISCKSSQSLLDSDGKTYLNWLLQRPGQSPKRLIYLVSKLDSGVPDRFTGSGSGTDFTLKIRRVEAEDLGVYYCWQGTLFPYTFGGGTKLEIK
B2: 8A4 (antibody, V domains shown)
VH: EVQLQQSGAELVRPGALVKLSCKASGFNIKDYYIHWVKQRPEQGLEWIGWIDPENGDTVYDPQFQDKANITADTSSNTAYLQLSSLTSEGTAVYYCSTLDFWGQGTTLTVSS
VL: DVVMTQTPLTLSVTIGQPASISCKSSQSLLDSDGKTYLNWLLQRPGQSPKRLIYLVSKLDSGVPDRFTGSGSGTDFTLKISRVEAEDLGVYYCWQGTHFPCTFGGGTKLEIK
B3: mouse 3D6 antibody (antibody, V domains shown)
VH: EVQLQQSGADLVRPGALVKLSCKASGFNIKDYYLHWVRQRPEQGLEWIGWIDPENGDTVYDPKFQGKATITADTSSNTAYLQLGSLTSEDTAVYFCSTLDFWGQGTTLTVSS
VL: not shown
notes: Mouse monoclonal antibody from hybridoma; also called murine 3D6; m3D6
B4: Hu3D6VHvb4 / Hu3D6VLvb2 (antibody, V domains shown)
VH: EVQLVQSGAEVVKPGATVKISCKASGFTIKDYYLHWVRQRPGKGLEWIGWIDPENGDTIYDPKFQGRVTITADTSTDTAYMELSSLRSEDTAVYYCSTLDFWGQGTLVTVSS
VL: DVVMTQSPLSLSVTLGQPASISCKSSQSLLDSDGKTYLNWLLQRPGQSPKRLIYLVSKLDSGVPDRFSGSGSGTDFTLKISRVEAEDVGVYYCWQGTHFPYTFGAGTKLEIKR
notes: Humanized 3D6 variant, expressed as intact antibody in HEK-293 cells; also called VHvb4/VLvb2
B5: Hu3D6VHvb5 / Hu3D6VLvb3 (antibody, V domains shown)
VH: EVQLVQSGAEVVKPGATVKISCKASGFTIKDYYLHWVRQRPGKGLEWIGWIDPEDGETIYDPKFQGRVTITADTSTDTAYMELSSLRSEDTAVYYCSTLDFWGQGTLVTVSS
VL: DVVMTQSPLSLSVTLGEPASISCRSSQSLLDSDGKTYLNWLQQRPGQSPRRLIYLVSKLDSGVPDRFSGSGSGTDFTLKISRVEAEDVGVYYCWQGTHFPYTFGQGTKLEIKR
notes: Humanized 3D6 variant, expressed as intact antibody in HEK-293 cells; also called VHvb5/VLvb3
B6: Hu3D6VHvb2 / Hu3D6VLvb3 (antibody, V domains shown)
VH: EVQLVQSGAEVVKPGASVKISCKASGFNIKDYYLHWVRQRPGKGLEWIGWIDPENGDTVYDPKFQGRATITADTSTDTAYLELSSLTSEDTAVYFCSTLDFWGQGTLVTVSS
VL: DVVMTQSPLSLSVTLGEPASISCRSSQSLLDSDGKTYLNWLQQRPGQSPRRLIYLVSKLDSGVPDRFSGSGSGTDFTLKISRVEAEDVGVYYCWQGTHFPYTFGQGTKLEIKR
notes: Humanized 3D6 variant, expressed as intact antibody in HEK-293 cells; also called VHvb2/VLvb3
B7: Hu3D6VHvb3 / Hu3D6VLvb2 (antibody, V domains shown)
VH: EVQLVQSGAEVVKPGATVKISCKASGFNIKDYYLHWVRQRPGKGLEWIGWIDPENGDTIYDPKFQGRATITADTSTDTAYMELSSLRSEDTAVYYCSTLDFWGQGTLVTVSS
VL: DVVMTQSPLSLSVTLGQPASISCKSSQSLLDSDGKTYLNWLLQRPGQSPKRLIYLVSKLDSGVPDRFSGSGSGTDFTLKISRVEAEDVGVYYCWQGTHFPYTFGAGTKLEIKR
notes: Humanized 3D6 variant, expressed as intact antibody in HEK-293 cells; also called VHvb3/VLvb2
B8: Hu3D6VHvb6 / Hu3D6VLvb3 (antibody, V domains shown)
VH: EVQLVQSGAEVVKPGATVKISCKASGFTIKDYYLHWVRQRPGKGLEWIGWIDPEDGETVYDPKFQGRVTITADTSTDTAYMELSSLRSEDTAVYFCSTLDFWGQGTLVTVSS
VL: DVVMTQSPLSLSVTLGEPASISCRSSQSLLDSDGKTYLNWLQQRPGQSPRRLIYLVSKLDSGVPDRFSGSGSGTDFTLKISRVEAEDVGVYYCWQGTHFPYTFGQGTKLEIKR
notes: Humanized 3D6 variant, expressed as intact antibody in HEK-293 cells; also called VHvb6/VLvb3
B9: Hu3D6VHvb3 / Hu3D6VLvb3 (antibody, V domains shown)
VH: EVQLVQSGAEVVKPGATVKISCKASGFNIKDYYLHWVRQRPGKGLEWIGWIDPENGDTIYDPKFQGRATITADTSTDTAYMELSSLRSEDTAVYYCSTLDFWGQGTLVTVSS
VL: DVVMTQSPLSLSVTLGEPASISCRSSQSLLDSDGKTYLNWLQQRPGQSPRRLIYLVSKLDSGVPDRFSGSGSGTDFTLKISRVEAEDVGVYYCWQGTHFPYTFGQGTKLEIKR
notes: Humanized 3D6 variant, expressed as intact antibody in HEK-293 cells; also called VHvb3/VLvb3
B10: Hu3D6VHvb7 / Hu3D6VLvb2 (antibody, V domains shown)
VH: EVQLVQSGAEVVKPGATVKISCKASGFTIKDYYLHWVRQRPGKGLEWIGWIDPEDGETVYDPKFQGRVTITADTSTDTAYMELSSLRSEDTAVYYCSTLDFWGQGTLVTVSS
VL: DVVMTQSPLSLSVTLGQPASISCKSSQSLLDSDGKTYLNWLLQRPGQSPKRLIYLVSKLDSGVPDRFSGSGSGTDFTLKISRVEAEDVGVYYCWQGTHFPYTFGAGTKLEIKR
notes: Humanized 3D6 variant, expressed as intact antibody in HEK-293 cells; also called VHvb7/VLvb2
B11: Hu3D6VHvb7 / Hu3D6VLvb3 (antibody, V domains shown)
VH: EVQLVQSGAEVVKPGATVKISCKASGFTIKDYYLHWVRQRPGKGLEWIGWIDPEDGETVYDPKFQGRVTITADTSTDTAYMELSSLRSEDTAVYYCSTLDFWGQGTLVTVSS
VL: DVVMTQSPLSLSVTLGEPASISCRSSQSLLDSDGKTYLNWLQQRPGQSPRRLIYLVSKLDSGVPDRFSGSGSGTDFTLKISRVEAEDVGVYYCWQGTHFPYTFGQGTKLEIKR
notes: Humanized 3D6 variant, expressed as intact antibody in HEK-293 cells; also called VHvb7/VLvb3
B12: Hu3D6VHvb4 / Hu3D6VLvb3 (antibody, V domains shown)
VH: EVQLVQSGAEVVKPGATVKISCKASGFTIKDYYLHWVRQRPGKGLEWIGWIDPENGDTIYDPKFQGRVTITADTSTDTAYMELSSLRSEDTAVYYCSTLDFWGQGTLVTVSS
VL: DVVMTQSPLSLSVTLGEPASISCRSSQSLLDSDGKTYLNWLQQRPGQSPRRLIYLVSKLDSGVPDRFSGSGSGTDFTLKISRVEAEDVGVYYCWQGTHFPYTFGQGTKLEIKR
notes: Humanized 3D6 variant, expressed as intact antibody in HEK-293 cells; also called VHvb4/VLvb3
B13: Hu3D6VHvb5 / Hu3D6VLvb2 (antibody, V domains shown)
VH: EVQLVQSGAEVVKPGATVKISCKASGFTIKDYYLHWVRQRPGKGLEWIGWIDPEDGETIYDPKFQGRVTITADTSTDTAYMELSSLRSEDTAVYYCSTLDFWGQGTLVTVSS
VL: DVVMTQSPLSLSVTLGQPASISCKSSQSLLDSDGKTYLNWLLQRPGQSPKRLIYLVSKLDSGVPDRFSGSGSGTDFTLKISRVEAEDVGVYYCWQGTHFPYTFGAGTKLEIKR
notes: Humanized 3D6 variant, expressed as intact antibody in HEK-293 cells; also called VHvb5/VLvb2
B14: Hu3D6VHvb2 / Hu3D6VLvb2 (antibody, V domains shown)
VH: EVQLVQSGAEVVKPGASVKISCKASGFNIKDYYLHWVRQRPGKGLEWIGWIDPENGDTVYDPKFQGRATITADTSTDTAYLELSSLTSEDTAVYFCSTLDFWGQGTLVTVSS
VL: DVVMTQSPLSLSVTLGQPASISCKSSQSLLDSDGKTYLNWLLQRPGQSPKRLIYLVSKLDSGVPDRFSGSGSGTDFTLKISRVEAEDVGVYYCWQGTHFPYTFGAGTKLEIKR
notes: Humanized 3D6 variant, expressed as intact antibody in HEK-293 cells; also called VHvb2/VLvb2
B15: Hu3D6VHvb6 / Hu3D6VLvb2 (antibody, V domains shown)
VH: EVQLVQSGAEVVKPGATVKISCKASGFTIKDYYLHWVRQRPGKGLEWIGWIDPEDGETVYDPKFQGRVTITADTSTDTAYMELSSLRSEDTAVYFCSTLDFWGQGTLVTVSS
VL: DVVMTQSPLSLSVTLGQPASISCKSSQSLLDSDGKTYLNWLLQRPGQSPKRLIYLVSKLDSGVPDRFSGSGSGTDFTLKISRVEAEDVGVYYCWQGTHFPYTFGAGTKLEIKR
notes: Humanized 3D6 variant, expressed as intact antibody in HEK-293 cells; also called VHvb6/VLvb2
B16: Hu3D6VHvb1 / Hu3D6VLvb1 (antibody, V domains shown)
VH: QVQLQQSGAELVKPGASVKLSCTASGFNIKDYYLHWVKQRPEQGLEWIGWIDPENGDTVYDPKFQGKATITADTSSNTAYLQLSSLTSEDTAVYFCSTLDFWGQGTTLTVSS
VL: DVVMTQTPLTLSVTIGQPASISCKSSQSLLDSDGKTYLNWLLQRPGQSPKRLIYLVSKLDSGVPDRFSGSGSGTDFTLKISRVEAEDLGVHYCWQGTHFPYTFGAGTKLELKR
notes: Humanized 3D6 variant, transiently expressed as intact antibody in HEK-293 cells; also called VHvb1/VLvb1

target: recombinant human tau (human, UniProt P10636 1-383); experiment: SPR, Biacore T200: antibody captured on anti-mouse CM5 chip, recombinant human tau 10-0.14 nM as analyte, global 1:1 fit
Sequence (P10636 other isoform, or with tags, fused parts or gaps): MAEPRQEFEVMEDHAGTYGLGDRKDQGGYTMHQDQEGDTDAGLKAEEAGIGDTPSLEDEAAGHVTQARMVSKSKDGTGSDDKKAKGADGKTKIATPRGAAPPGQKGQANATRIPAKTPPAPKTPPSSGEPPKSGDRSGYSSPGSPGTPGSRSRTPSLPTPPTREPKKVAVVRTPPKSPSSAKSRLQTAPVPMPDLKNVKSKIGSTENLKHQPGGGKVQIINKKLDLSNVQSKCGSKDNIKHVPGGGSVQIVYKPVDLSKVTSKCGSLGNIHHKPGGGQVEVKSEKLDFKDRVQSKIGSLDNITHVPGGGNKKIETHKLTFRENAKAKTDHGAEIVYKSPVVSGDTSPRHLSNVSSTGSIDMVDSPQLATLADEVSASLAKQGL
Protocol: (§1) Methods: SPR analysis was performed using a Biacore T200 to determine the binding kinetics of murine antibodies to recombinant human tau. To prepare a sensor surface, anti-mouse antibody (GE Life Sciences) was immobilized on sensor chip CM5 via amine coupling, and antibody was captured at a level to ensure maximum binding of 50 RU. Various concentrations of recombinant tau ranging from 10-0.14 nM were passed over the captured ligand at a flow rate of 50 μL/min in running buffer (HBS+0.05% P-20, 1 mg/mL BSA), for 180 sec association and 900 sec dissociation. Data were double-referenced to both an irrelevant sensor not containing antibody ligand, and 0 nM analyte concentration to account for the dissociation of ligand from the capture moiety. Data was then analyzed using a global 1:1 fit.
(§2) Results: Multiple murine antibodies were selected based on their performance in a battery of ELISA assays, and their binding affinities were assessed via SPR. Antibodies were tested in parallel sets, and their binding association and dissociation rates were compared to select the highest binder to recombinant human tau.

**Q.** With B1 as the binder, how does the Kd read?
**A.** 6.78 nM

**Q.** And the koff?
**A.** 0.00254 s⁻¹

**Q.** And the kon?
**A.** 375000 M⁻¹ s⁻¹

**Q.** How did the Kd turn out when B2 was run?
**A.** 3.8 nM

**Q.** And the koff?
**A.** 0.00227 s⁻¹

**Q.** What about the kon of the same binder?
**A.** 599000 M⁻¹ s⁻¹

target: T1, recombinant human tau (human, UniProt P10636-6 1-383, limits assumed); experiment: as above
T1 construct: also called recombinant tau
T1 sequence (P10636 other isoform, or with tags, fused parts or gaps limits assumed): as the sequence (P10636 other isoform, or with tags, fused parts or gaps) above
Protocol: as §1, §2

**Q.** Which results are given for B3?
**A.** Kd: 0.46 nM; koff: 0.00119 s⁻¹; kon: 2.58e+06 M⁻¹ s⁻¹

target: T1, recombinant human tau; experiment: SPR, Biacore T200, antibody captured by anti-human antibody, tau as analyte, single cycle, 1:1 fit
Protocol: Affinity of purified humanized variants to tau were determined by surface plasmon resonance (SPR). SPR analysis was performed using a Biacore T200 to determine the binding kinetics of humanized antibodies to recombinant human tau. To prepare a sensor surface, anti-human antibody (GE Life Sciences) was immobilized on sensor chip CM3 via amine coupling, and antibody was captured at a level to ensure maximum binding of 50 RU. Various concentrations of recombinant tau ranging from 50-0.62 nM were passed over the captured ligand at a flow rate of 50 μL/min in running buffer (HBS+0.05% P-20, 1 mg/mL BSA), in a single cycle manner. Data were double-referenced to both an irrelevant sensor not containing antibody ligand, and 0 nM analyte concentration to account for the dissociation of ligand from the capture moiety. Data were then analyzed using a 1:1 fit. Results are presented in Table 9, in columns labeled “k₀ (M⁻¹s⁻¹), koff (s⁻¹), and Kd (nM).”

**Q.** Which results are given for B4?
**A.** Kd: 4.2 nM; koff: 0.0029 s⁻¹; kon: 690000 M⁻¹ s⁻¹

**Q.** With B5 as the binder, how does the Kd read?
**A.** 1.4 nM

**Q.** What about the koff of the same binder?
**A.** 0.0028 s⁻¹

**Q.** What about the kon of the same binder?
**A.** 2e+06 M⁻¹ s⁻¹

**Q.** What does the source list for B6?
**A.** Kd: 0.19 nM; koff: 0.0003 s⁻¹; kon: 1.6e+06 M⁻¹ s⁻¹

**Q.** B7 was tested. Which Kd did it give?
**A.** 1.07 nM

**Q.** And the koff?
**A.** 0.0015 s⁻¹

**Q.** And the kon?
**A.** 1.4e+06 M⁻¹ s⁻¹

**Q.** What does the source list for B8?
**A.** Kd: 0.152 nM; koff: 0.000538 s⁻¹; kon: 3.54e+06 M⁻¹ s⁻¹

**Q.** For B9, which Kd is on record?
**A.** 1.13 nM

**Q.** What about the koff of the same binder?
**A.** 0.0018 s⁻¹

**Q.** What about the kon of the same binder?
**A.** 1.6e+06 M⁻¹ s⁻¹

**Q.** Which results are given for B10?
**A.** Kd: 0.252 nM; koff: 0.000779 s⁻¹; kon: 3.09e+06 M⁻¹ s⁻¹

**Q.** Which results are given for B11?
**A.** Kd: 0.209 nM; koff: 0.00077 s⁻¹; kon: 3.69e+06 M⁻¹ s⁻¹

**Q.** B12 was tested. Which Kd did it give?
**A.** 3.74 nM

**Q.** And the koff?
**A.** 0.0034 s⁻¹

**Q.** What about the kon of the same binder?
**A.** 910000 M⁻¹ s⁻¹

**Q.** Which results are given for B13?
**A.** Kd: 1.44 nM; koff: 0.0026 s⁻¹; kon: 1.8e+06 M⁻¹ s⁻¹

**Q.** How did the Kd turn out when B14 was run?
**A.** 0.04 nM

**Q.** What about the koff of the same binder?
**A.** 5.7e-05 s⁻¹

**Q.** What about the kon of the same binder?
**A.** 1.5e+06 M⁻¹ s⁻¹

**Q.** With B15 as the binder, how does the Kd read?
**A.** 0.107 nM

**Q.** What about the koff of the same binder?
**A.** 0.000369 s⁻¹

**Q.** And the kon?
**A.** 3.45e+06 M⁻¹ s⁻¹

**Q.** How did the Kd turn out when B16 was run?
**A.** 0.64 nM

**Q.** What about the koff of the same binder?
**A.** 0.0009 s⁻¹

**Q.** And the kon?
**A.** 1.4e+06 M⁻¹ s⁻¹

Source: patent publication US20220153821A1 (PROTHENA BIOSCIENCES, published 2022)
